Data on two molecules can be found in US6942981.

The assay concerns the target GST-DLG1 PDZ domains 1-2 fusion protein (human) (UniProt Q12959). Briefly: G assay titration of biotinylated peptide on immobilized GST-PDZ, saturation fit (apparent affinity).

Ends that are not written are not given here. * marks the point of attachment. Biotin = O=C1N[C@H]2[C@H](CS[C@H]2CCCCC(=O)*)N1

Consider Biotin-ISGTPTSTMVHGMTSSSSVV [CLASP-2 C-terminal peptide AA2L], for which the Kd is 21 µM.

On to Biotin-KDITSDSENSNFRNEIQSLV [CD95 (Apo-1/Fas) C-terminal peptide AA13L], for which the Kd amounted to 54 µM.
